Data as given in the supplement of paper PMC10567573.

B1: HSP90AB1 (parent)
chain: EADKNDKAVKDLVVLLFETALLSS

Variants of: B1
Assay: protein stability index of a GFP-peptide fusion (GPS, HEK-293T) (PSI 1-6); higher = more stable
Settings: c terminus: a fixed tail appended
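Note: lentivirally expressed fusions sorted by FACS into six bins by GFP to DsRed ratio, PSI derived from sequencing read proportions per bin multiplied by bin number.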

Point of comparison: EADKNDKAVKILVVLLFETALLSS [D11I], protein stability index 3.6. Against it:
- HADKNDKAVKDLVVLLFETALLSS [E1H] — lower, 1.94
- EADKNDKAVKWLVVLLFETALLSS [D11W] — lower, 3.06
- EADKNDKAVKDLHVLLFETALLSS [V13H] — lower, 2.58
- EADKNDKAVKDLIVLLFETALLSS [V13I] — lower, 1.93
- EADKNDKAVKDLEVLLFETALLSS [V13E] — higher, 3.74
- EADKNDKAVKDLAVLLFETALLSS [V13A] — lower, 2.41
- EADKNDKAVKDLNVLLFETALLSS [V13N] — higher, 3.7
- EARKNDKAVKDLVVLLFETALLSS [D3R] — lower, 1.9
- EADKNDKAWKDLVVLLFETALLSS [V9W] — lower, 1.7
- EADKNDKAFKDLVVLLFETALLSS [V9F] — lower, 2.17
- EADKNDKACKDLVVLLFETALLSS [V9C] — lower, 1.81
- EADKNDKAEKDLVVLLFETALLSS [V9E] — lower, 3.07
- EADKNDKASKDLVVLLFETALLSS [V9S] — lower, 2.1
- EADKNDKAMKDLVVLLFETALLSS [V9M] — lower, 1.8
- EADKNDKAVKDLVVLLHETALLSS [F17H] — lower, 3.13
- EADKNDKAVKDLVVLLRETALLSS [F17R] — lower, 3.31
- EADKNDKAVKDLVSLLFETALLSS [V14S] — lower, 2.17
- EADKNDKAVKDLVDLLFETALLSS [V14D] — lower, 3.03
- EADKNDKAVKDVVVLLFETALLSS [L12V] — lower, 2.1
- EGDKNDKAVKDLVVLLFETALLSS [A2G] — lower, 1.33
- ETDKNDKAVKDLVVLLFETALLSS [A2T] — lower, 2.15
- EADKNDKAVKDLVVLLFETALLPS [S23P] — lower, 1.96
- EADKNDKLVKDLVVLLFETALLSS [A8L] — lower, 2.43
- EADKNDKSVKDLVVLLFETALLSS [A8S] — lower, 2.22
- EADKNDKAVKDLVVLLFETADLSS [L21D] — lower, 2.57
- EADKNDKAVKDLVVLLFETAPLSS [L21P] — lower, 2.88
- EADKNDKAVKDLVVLLFETARLSS [L21R] — lower, 2.11
- EADKNDKAVKDLVVLLFTTALLSS [E18T] — lower, 2.01
- EADKNDKAVKDLVVGLFETALLSS [L15G] — lower, 3.23
- EADKNDKAVKDLVVQLFETALLSS [L15Q] — lower, 3.06
- EADKNDKAVKDLVVLLFETALLST [S24T] — lower, 1.91
- EADKNDKAVKDLVVLLFETALLSY [S24Y] — lower, 2.04
- EADKNNKAVKDLVVLLFETALLSS [D6N] — lower, 1.9
- EADKNRKAVKDLVVLLFETALLSS [D6R] — lower, 1.73
- EADKNQKAVKDLVVLLFETALLSS [D6Q] — lower, 2.2
- EADKNHKAVKDLVVLLFETALLSS [D6H] — lower, 2.6
- EADKNDKAVMDLVVLLFETALLSS [K10M] — lower, 1.83
- EADRNDKAVKDLVVLLFETALLSS [K4R] — lower, 1.59
- EADHNDKAVKDLVVLLFETALLSS [K4H] — lower, 1.82
- EADPNDKAVKDLVVLLFETALLSS [K4P] — lower, 1.63
- EADINDKAVKDLVVLLFETALLSS [K4I] — lower, 2
- EADKNDKAVKDLVVLLFETQLLSS [A20Q] — lower, 2.44
- EADKNDKAVKDLVVLLFETMLLSS [A20M] — lower, 1.97
- EADKNDKAVKDLVVLLFETWLLSS [A20W] — lower, 2.07
- EADKNDCAVKDLVVLLFETALLSS [K7C] — lower, 1.44
- EADKNDNAVKDLVVLLFETALLSS [K7N] — lower, 1.95
